Assay results taken from US20200057047A1 (NATIONAL HEALTH RESEARCH INSTITUTES, published 2020).
Values belong to the binder of their own block, whether it stands above or below them.

Tests used:
[1] = target: T1, HA-tagged AhR (Homo sapiens (Human), UniProt P35869 1-848, limits assumed); assay: co-IP, HEK293T cells co-transfected with IKKβ-CFP (FIG. 5I)
T1 construct: also called HA-AhR; purified AhR; not shown: HA tag
T1 sequence: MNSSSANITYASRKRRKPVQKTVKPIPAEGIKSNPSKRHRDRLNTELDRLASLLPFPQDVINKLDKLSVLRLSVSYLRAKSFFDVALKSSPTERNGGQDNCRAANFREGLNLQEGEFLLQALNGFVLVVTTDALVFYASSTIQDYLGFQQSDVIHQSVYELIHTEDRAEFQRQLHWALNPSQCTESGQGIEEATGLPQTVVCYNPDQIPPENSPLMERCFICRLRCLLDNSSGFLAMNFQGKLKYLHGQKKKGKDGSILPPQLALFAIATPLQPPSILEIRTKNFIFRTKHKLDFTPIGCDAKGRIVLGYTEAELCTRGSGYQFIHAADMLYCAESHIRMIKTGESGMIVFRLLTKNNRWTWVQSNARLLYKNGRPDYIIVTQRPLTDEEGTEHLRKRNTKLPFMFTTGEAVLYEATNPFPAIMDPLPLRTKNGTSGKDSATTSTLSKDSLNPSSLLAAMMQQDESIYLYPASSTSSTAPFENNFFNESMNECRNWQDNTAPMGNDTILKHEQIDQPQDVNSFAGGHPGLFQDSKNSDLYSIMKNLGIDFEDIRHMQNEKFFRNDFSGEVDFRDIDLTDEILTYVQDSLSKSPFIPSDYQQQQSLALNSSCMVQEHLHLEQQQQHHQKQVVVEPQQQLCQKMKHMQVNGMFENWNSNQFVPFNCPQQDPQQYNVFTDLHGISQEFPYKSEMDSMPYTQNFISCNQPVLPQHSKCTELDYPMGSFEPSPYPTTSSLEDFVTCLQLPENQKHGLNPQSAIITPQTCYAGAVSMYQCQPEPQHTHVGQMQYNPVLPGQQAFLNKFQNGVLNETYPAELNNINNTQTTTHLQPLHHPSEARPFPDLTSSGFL

[2] = target: T2, GLK (MAP4K3) (transfected; construct of the ALPHA assay with AhR not stated) (UniProt Q8IVH8 1-894, limits assumed); assay: ALPHA protein-protein interaction assay
T2 construct: Expression plasmid 'reported previously'
T2 sequence (looked up): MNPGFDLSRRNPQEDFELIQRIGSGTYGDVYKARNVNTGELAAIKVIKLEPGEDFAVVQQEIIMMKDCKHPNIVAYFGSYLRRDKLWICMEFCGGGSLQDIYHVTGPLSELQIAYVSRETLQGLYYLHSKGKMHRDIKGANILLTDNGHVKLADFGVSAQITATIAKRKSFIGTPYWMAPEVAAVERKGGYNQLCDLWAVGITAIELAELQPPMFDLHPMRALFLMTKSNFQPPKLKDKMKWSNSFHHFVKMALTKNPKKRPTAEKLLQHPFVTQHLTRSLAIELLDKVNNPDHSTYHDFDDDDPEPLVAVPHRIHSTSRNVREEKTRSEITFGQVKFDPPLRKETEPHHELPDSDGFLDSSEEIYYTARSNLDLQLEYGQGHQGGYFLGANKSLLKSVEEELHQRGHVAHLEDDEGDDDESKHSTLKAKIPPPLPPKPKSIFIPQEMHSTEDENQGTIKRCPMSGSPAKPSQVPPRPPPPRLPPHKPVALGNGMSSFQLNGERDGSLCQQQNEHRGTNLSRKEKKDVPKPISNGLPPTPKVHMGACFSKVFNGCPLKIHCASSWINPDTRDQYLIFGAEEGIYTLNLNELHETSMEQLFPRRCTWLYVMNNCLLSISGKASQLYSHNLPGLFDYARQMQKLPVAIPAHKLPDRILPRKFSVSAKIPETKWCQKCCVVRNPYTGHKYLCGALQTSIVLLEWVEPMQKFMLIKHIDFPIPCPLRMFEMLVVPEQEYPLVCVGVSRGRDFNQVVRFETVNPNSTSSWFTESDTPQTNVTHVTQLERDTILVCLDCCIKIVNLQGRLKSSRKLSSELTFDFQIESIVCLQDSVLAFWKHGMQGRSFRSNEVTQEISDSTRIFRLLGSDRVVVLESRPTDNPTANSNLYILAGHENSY

[3] = target: T3, AhR, endogenous, human peripheral blood T cells (SLE and RA patients) (human, UniProt P35869 11-848, limits assumed); assay: in situ PLA, human peripheral blood T cells (FIG. 8C)
T3 sequence (looked up): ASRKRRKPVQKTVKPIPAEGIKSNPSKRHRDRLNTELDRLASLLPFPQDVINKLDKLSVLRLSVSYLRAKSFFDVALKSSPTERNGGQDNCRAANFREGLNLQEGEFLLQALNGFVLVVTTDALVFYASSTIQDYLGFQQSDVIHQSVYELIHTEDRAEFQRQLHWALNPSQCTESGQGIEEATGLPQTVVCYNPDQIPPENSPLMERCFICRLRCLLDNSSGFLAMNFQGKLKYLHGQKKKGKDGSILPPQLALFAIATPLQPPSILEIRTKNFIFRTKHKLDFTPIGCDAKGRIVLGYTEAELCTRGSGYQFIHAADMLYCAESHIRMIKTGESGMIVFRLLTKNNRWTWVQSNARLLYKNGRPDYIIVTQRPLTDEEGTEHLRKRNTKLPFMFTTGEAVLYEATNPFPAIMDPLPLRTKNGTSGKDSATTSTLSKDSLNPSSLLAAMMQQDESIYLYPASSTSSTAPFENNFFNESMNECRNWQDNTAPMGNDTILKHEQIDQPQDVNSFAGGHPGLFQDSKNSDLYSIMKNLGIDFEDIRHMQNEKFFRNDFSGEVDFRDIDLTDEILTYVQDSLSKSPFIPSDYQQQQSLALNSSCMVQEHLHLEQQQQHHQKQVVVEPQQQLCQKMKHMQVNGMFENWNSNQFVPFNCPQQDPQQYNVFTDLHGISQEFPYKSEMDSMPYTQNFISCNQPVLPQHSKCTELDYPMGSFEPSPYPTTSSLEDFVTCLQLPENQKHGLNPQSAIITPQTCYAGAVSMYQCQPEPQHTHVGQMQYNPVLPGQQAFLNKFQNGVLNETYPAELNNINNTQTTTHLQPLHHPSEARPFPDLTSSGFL

[4] = target: IQGAP1, endogenous, lung tissues of mice in the LLC/luc metastatic lung cancer model (mouse, UniProt Q9JKF1 2-1657); assay: in situ PLA, lung tissues of the LLC/luc mouse model (FIG. 16H, upper panel)
[5] = target: IQGAP1, endogenous, human NSCLC tissues (human, UniProt P46940 2-1657); assay: in situ PLA with probes for GLK and IQGAP1, human NSCLC tissue sections (FIGS. 21A-B)
Description: These tissues were subjected to in situ proximity ligation assay (PLA) with a combination of paired PLA probes corresponding to GLK and IQGAP1. […] The few PLA signals in the normal adjacent tissues of NSCLC patients may be metastatic cancer cells migrating from original lesion. […] Next, we studied whether the GLK−IQGAP1 complex could act as a potential prognostic biomarker for NSCLCs. NSCLC (squamous cell carcinoma and adenocarcinoma) patients, whose survival data were available, were divided into four PLA-signal subgroups after cluster analyses. The two subgroups with highest PLA signals contained only one and two patients, respectively, thus, these two subgroups were excluded from further analysis. The remaining two subgroups (n=63) were subjected to Kaplan-Meier survival analysis using the survival data (available from the provider). […] The higher P value (P=0.069) may be due to the exclusion of three data with highest PLA signals. Nevertheless, NSCLC patients with more GLK−IQGAP1 complexes have a lower survival rate than that of the patients with less GLK−IQGAP1 complexes. Because 40% to 60% of NSCLC patients the of cancer recurrence after cancer resection, we studied whether the GLK−IQGAP1 complex is associated with NSCLC metastasis. […]

Chain of IQGAP1, endogenous, human NSCLC tissues (P46940 2-1657 limits assumed): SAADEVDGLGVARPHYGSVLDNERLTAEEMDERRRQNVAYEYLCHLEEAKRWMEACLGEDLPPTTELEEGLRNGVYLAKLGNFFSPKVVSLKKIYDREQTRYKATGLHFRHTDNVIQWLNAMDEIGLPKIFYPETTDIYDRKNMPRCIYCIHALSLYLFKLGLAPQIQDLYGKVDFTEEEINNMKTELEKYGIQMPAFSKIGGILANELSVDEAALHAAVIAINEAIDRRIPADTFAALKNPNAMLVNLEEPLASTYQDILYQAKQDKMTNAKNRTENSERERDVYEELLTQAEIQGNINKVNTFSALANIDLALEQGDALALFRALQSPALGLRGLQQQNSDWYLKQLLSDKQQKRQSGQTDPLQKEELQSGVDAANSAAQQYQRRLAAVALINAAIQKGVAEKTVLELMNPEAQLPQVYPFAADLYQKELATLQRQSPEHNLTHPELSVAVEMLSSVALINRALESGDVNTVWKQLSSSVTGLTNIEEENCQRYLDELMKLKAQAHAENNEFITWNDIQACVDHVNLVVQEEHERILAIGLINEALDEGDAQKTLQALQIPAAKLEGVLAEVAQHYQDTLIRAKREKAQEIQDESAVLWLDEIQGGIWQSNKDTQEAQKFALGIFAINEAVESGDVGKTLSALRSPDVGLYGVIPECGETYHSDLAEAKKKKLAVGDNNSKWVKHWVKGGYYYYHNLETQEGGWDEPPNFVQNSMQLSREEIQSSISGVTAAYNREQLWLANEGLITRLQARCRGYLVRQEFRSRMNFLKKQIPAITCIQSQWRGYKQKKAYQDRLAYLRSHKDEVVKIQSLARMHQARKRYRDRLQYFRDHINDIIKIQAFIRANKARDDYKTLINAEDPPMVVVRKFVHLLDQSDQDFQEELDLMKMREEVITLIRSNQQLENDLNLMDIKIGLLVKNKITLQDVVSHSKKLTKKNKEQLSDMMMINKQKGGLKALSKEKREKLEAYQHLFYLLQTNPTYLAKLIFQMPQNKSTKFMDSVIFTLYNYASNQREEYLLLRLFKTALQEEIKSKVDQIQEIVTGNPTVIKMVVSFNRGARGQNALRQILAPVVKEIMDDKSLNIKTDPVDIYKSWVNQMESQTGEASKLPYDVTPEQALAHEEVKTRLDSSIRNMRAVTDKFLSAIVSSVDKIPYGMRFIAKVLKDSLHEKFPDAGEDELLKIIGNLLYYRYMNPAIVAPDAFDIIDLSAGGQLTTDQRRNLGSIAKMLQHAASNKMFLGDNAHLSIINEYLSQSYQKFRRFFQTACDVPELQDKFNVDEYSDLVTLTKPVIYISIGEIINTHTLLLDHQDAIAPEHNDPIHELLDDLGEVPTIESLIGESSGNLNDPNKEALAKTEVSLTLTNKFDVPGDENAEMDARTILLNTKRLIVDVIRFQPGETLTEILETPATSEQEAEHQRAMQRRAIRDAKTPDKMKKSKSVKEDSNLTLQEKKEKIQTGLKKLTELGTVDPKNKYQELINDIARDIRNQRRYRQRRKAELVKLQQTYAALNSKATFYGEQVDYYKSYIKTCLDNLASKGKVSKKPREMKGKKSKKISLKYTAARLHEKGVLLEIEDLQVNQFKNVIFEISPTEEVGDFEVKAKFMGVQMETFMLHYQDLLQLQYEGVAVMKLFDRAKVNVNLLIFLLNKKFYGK
Chain of IQGAP1, endogenous, lung tissues of mice in the LLC/luc metastatic lung cancer model (Q9JKF1 2-1657 limits assumed): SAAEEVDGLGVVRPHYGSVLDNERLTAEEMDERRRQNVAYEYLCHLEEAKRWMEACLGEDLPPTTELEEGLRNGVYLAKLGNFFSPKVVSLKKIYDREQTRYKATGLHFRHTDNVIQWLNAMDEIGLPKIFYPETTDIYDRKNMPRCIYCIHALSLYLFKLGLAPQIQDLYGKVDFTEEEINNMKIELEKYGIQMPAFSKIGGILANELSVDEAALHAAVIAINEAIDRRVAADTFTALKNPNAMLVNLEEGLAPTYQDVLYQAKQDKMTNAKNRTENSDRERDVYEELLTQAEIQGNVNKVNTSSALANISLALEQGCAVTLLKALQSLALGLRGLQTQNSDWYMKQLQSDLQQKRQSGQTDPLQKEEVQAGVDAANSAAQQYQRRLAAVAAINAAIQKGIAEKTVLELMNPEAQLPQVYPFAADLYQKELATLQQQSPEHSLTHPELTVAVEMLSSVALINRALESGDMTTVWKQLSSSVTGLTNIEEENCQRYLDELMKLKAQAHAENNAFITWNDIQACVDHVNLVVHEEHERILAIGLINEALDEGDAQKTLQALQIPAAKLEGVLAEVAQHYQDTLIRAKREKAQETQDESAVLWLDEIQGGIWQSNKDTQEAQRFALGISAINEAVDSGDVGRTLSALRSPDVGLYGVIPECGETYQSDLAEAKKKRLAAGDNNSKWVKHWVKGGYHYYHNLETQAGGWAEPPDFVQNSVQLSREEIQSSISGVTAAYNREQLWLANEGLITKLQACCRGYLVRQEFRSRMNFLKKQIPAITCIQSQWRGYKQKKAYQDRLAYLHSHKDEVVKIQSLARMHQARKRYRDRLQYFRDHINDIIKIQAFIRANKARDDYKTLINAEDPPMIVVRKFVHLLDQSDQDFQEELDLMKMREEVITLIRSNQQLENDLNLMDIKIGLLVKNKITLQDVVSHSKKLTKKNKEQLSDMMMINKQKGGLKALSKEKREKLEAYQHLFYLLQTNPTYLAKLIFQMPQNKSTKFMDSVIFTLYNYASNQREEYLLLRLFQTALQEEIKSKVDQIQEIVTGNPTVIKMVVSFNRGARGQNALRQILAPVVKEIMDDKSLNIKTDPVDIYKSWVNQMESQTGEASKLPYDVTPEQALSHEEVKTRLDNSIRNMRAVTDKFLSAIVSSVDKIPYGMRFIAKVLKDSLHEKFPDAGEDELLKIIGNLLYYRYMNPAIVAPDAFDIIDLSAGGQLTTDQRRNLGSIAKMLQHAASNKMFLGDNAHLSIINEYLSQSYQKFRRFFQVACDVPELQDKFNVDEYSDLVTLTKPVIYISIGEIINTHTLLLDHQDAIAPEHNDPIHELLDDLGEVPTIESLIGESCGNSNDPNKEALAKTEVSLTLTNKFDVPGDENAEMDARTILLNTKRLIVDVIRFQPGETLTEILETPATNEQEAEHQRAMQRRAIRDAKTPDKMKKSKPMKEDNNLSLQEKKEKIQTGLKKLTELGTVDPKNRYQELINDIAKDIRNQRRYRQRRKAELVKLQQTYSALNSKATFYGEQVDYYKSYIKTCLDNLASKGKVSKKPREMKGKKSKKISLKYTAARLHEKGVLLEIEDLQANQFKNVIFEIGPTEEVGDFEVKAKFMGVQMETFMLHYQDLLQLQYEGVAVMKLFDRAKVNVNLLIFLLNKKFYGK

binding result [3]: binds
B3: RORγt, endogenous, human peripheral blood T cells (SLE and RA patients) (receptor, UniProt P51449-2 1-497, looked up)
chain: MRTQIEVIPCKICGDKSSGIHYGVITCEGCKGFFRRSQRCNAAYSCTRQQNCPIDRTSRNRCQHCRLQKCLALGMSRDAVKFGRMSKKQRDSLHAEVQKQLQQRQQQQQEPVVKTPPAGAQGADTLTYTLGLPDGQLPLGSSPDLPEASACPPGLLKASGSGPSYSNNLAKAGLNGASCHLEYSPERGKAEGRESFYSTGSQLTPDRCGLRFEEHRHPGLGELGQGPDSYGSPSFRSTPEAPYASLTEIEHLVQSVCKSYRETCQLRLEDLLRQRSNIFSREEVTGYQRKSMWEMWERCAHHLTEAIQYVVEFAKRLSGFMELCQNDQIVLLKAGAMEVVLVRMCRAYNADNRTVFFEGKYGGMELFRALGCSELISSIFDFSHSLSALHFSEDEIALYTALVLINAHRPGLQEKRKVEQLQYNLELAFHHHLCKTHRQSILAKLPPKGKLRSLCSQHVERLQIFQHLHPIVVQAAFPPLYKELFSTETESPVGLSK

binding result [5]: binds
B5: GLK, endogenous, human NSCLC tissues (enzyme, UniProt Q8IVH8 1-894, looked up)
chain: T2 sequence (looked up)

The next lines start with the binder.

B1: Flag-tagged RORγt-S489A mutant (receptor)
chain: DYKDDDDKMRTQIEVIPCKICGDKSSGIHYGVITCEGCKGFFRRSQQCNVAYSCTRQQNCPIDRTSRNRCQHCRLQKCLALGMSRDAVKFGRMSKKQRDSLHAEVQKQLQQQQQQEQVAKTPPAGSRGADTLTYTLGLSDGQLPLGASPDLPEASACPPGLLRASGSGPPYSNTLAKTEVQGASCHLEYSPERGKAEGRDSIYSTDGQLTLGRCGLRFEETRHPELGEPEQGPDSHCIPSFCSAPEVPYASLTDIEYLVQNVCKSFRETCQLRLEDLLRQRTNLFSREEVTSYQRKSMWEMWERCAHHLTEAIQYVVEFAKRLSGFMELCQNDQIILLKAGAMEVVLVRMCRAYNANNHTVFFEGKYGGVELFRALGCSELISSIFDFSHFLSALCFSEDEIALYTALVLINANRPGLQEKRRVEHLQYNLELAFHHHLCKTHRQGLLAKLPPKGKLRSLCSQHVEKLQIFQHLHPIVVQAAFPPLYKELFSTDVEAPEGLSK
binding result [1]: no binding

B2: AhR (transfected; construct of the ALPHA and FRET assays with PKCθ or GLK not stated) (receptor)
chain: T1 sequence
binding result [2]: no binding

B4: GLK, endogenous, lung tissues of mice in the LLC/luc metastatic lung cancer model (enzyme)
chain: not shown
binding result [4]: binds
